Results as given in the supplement of paper PMC12764529.
± gives the half width of the 95% confidence interval.

What was measured:
[1] = folding stability dG unfold from trypsin proteolysis; higher = more stable
How it was run: (§1)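 Unfolding free energy was derived, per protease or combined, against a sequence-predicted unfolded-state K50 and a shared folded-state K50, starting from K50 inferred by Bayesian fitting of sequencing counts. Digestion with trypsin and chymotrypsin was carried out on designed mini-proteins under 80 residues without cysteine in a PA-tagged cDNA display construct. Only designs with AlphaFold2 dimer inter-PAE above 15 were kept.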

[2] = folding stability dG unfold from chymotrypsin proteolysis; higher = more stable
How it was run: as §1

[3] = folding stability dG unfold (combined trypsin and chymotrypsin); higher = more stable
How it was run: as §1

SAGKKTITVEIVVENLTEEEIEEKIREKLKEAGLKVEVVKVEIVKVEEVDGKKYLVVKVEIKIEPEEESAGG [r19_325_TrROS_Hall]
folding stability dG unfold [1]: 14.6 ± 0.753 kJ/mol
folding stability dG unfold [2]: 12 ± 0.351 kJ/mol
folding stability dG unfold [3]: 12.8 ± 0.502 kJ/mol

SAGKKTITVPLKDLKKVLEELKKKYPNIKKVKIYVNGKEYEIKVGEKVKITEVIKNENGEEFVKIEIYKSAG [r5_130_TrROS_Hall]
folding stability dG unfold [1]: 12.4 ± 0.711 kJ/mol
folding stability dG unfold [2]: 14.3 ± 0.343 kJ/mol
folding stability dG unfold [3]: 13.8 ± 0.92 kJ/mol

SAGKKTLIIRVKIRVRRKVDGKEEEVELELVIEVEAEEDEEEARRKAEELARKLAEEYNLEIEEVEIFPSAG [r5_497_TrROS_Hall]
folding stability dG unfold [1]: 17.5 ± 0.544 kJ/mol
folding stability dG unfold [2]: 18 ± 0.31 kJ/mol
folding stability dG unfold [3]: 17.8 ± 0.46 kJ/mol

SAGKKYIVVVNVDFGSPEKKESAPIVLELDEDEEVSEALAKIPGLEDVKVEVYVIEAEENPELAENPGSAGG [r19_339_TrMRF]
folding stability dG unfold [1]: 1.3 ± 0.46 kJ/mol
folding stability dG unfold [2]: 5.79 ± 0.347 kJ/mol
folding stability dG unfold [3]: 4.16 ± 0.837 kJ/mol

SAGKMKIIEVKPGEEIKITIPEEGKKVKIYVYNKNGEKVEEKEVEIKPGQTLTFKIPKEDAKVIIEIEDSAG [r5_797_TrROS_Hall]
folding stability dG unfold [1]: 7.32 ± 0.259 kJ/mol
folding stability dG unfold [2]: 13 ± 0.163 kJ/mol
folding stability dG unfold [3]: 11.8 ± 0.753 kJ/mol

SAGKNWYIQIQIEHRDPDGKPKREIPIIIEANPGDPEAFERALEFAERIAEKLHPPGHRVEINVTLFPYSAG [r5_793_TrROS]
folding stability dG unfold [1]: 11.4 ± 0.962 kJ/mol
folding stability dG unfold [2]: 9.09 ± 0.418 kJ/mol
folding stability dG unfold [3]: 10.2 ± 0.711 kJ/mol

SAGKPGEPIKLKIRYVDPDNGEPQTFEFPIKRIEDVEIDPPGNIIITFPGDGQEITFPPNHLTEVEILSAGG [r19_416_TrROS]
folding stability dG unfold [1]: -3.56 ± 3.05 kJ/mol
folding stability dG unfold [2]: 1.51 ± 1 kJ/mol
folding stability dG unfold [3]: 0.267 ± 0.753 kJ/mol

SAGKPIIVKVSVINEDGEEEEIAEFPIPPDLLKGSIEVGDGFIIAPDGEGPTFTAIIGDKPVKIEIEGSAGG [r19_408_TrMRF]
folding stability dG unfold [1]: 2.75 ± 0.243 kJ/mol
folding stability dG unfold [2]: 6.34 ± 0.544 kJ/mol
folding stability dG unfold [3]: 5.33 ± 0.544 kJ/mol

SAGKPKELAKKIAEKLAKEFEKKHPDVKIEKVEVKKIEVNPIEGYVKIDIVMYGKNGKLIYKPKITIKSAGG [r19_53_TrMRF]
folding stability dG unfold [1]: 13.5 ± 1.13 kJ/mol
folding stability dG unfold [2]: 16.6 ± 0.347 kJ/mol
folding stability dG unfold [3]: 15.2 ± 0.586 kJ/mol

SAGKPNIVVHPEYEQEKDPGDPGQPRIREMRVRVYLPNGRPITFRYRSPEDAVDRLLKRIQENPDLLKSAGG [r19_123_TrROS]
folding stability dG unfold [1]: 7.5 ± 0.502 kJ/mol
folding stability dG unfold [2]: 8.83 ± 0.544 kJ/mol
folding stability dG unfold [3]: 8.67 ± 0.795 kJ/mol

SAGKPVLLKIEIEVKVNGKTVKLELEILVEPGETIEELLAALPGVEEVKIKIEPISLEELEELKKKKPSAGG [r19_339_TrROS_Hall]
folding stability dG unfold [1]: 3.63 ± 0.962 kJ/mol
folding stability dG unfold [2]: 7.87 ± 0.247 kJ/mol
folding stability dG unfold [3]: 6.39 ± 1.26 kJ/mol

SAGKRTIMIPFNVKPNQIRNIAKDIVEMHPGWKIKSIKVFNPNNGEPQELPLGDVPPNEPVWIKVEIEPSAG [r5_357_TrROS]
folding stability dG unfold [1]: 9.89 ± 0.418 kJ/mol
folding stability dG unfold [2]: 9.26 ± 0.209 kJ/mol
folding stability dG unfold [3]: 9.58 ± 0.628 kJ/mol

SAGKSVKLSISVNPDNNSITITLEVEFKPDEKINIPAKFYLKDKEFNANYSVTKTPDGKAIATFTIELDSAG [r5_596_TrMRF]
folding stability dG unfold [1]: 11.2 ± 1.13 kJ/mol
folding stability dG unfold [2]: 19.1 ± 0.962 kJ/mol
folding stability dG unfold [3]: 15.2 ± 1.59 kJ/mol

SAGKVEIIPIENEDGSKFLVIKVNGKLIIITENEDGSISIKIIDLKTNKIEVIEIPKKDLKKALEKILKSAG [r5_674_TrROS_Hall]
folding stability dG unfold [1]: 16 ± 0.753 kJ/mol
folding stability dG unfold [2]: 14.5 ± 0.502 kJ/mol
folding stability dG unfold [3]: 15 ± 0.837 kJ/mol

SAGKVIIIPAEKAEPELIKEILKKVPEGTEIRIAFAGPELVELLKELGFEVKPELVKPLTPEDLKKLLESAG [r5_354_TrMRF]
folding stability dG unfold [1]: 3.13 ± 0.259 kJ/mol
folding stability dG unfold [2]: 8.02 ± 0.385 kJ/mol
folding stability dG unfold [3]: 6.65 ± 0.46 kJ/mol

SAGKVVKISAPIEVLRNIPNVLELYVVGDKVYLVVPNELLVVDLDLPPLVPTVPESVPEELALLGGLLGSAG [r5_2_TrMRF]
folding stability dG unfold [1]: 3.05 ± 0.213 kJ/mol
folding stability dG unfold [2]: 7.28 ± 0.218 kJ/mol
folding stability dG unfold [3]: 6.19 ± 0.544 kJ/mol

SAGKVYRIKATAPDGSTAIIEIPENGNAKIKIFYPNGVKEITINLDPNVKIEEILEKFPNFIISSIEEESAG [r5_259_TrMRF]
folding stability dG unfold [1]: 21 ± 3.35 kJ/mol
folding stability dG unfold [2]: 16.5 ± 0.92 kJ/mol
folding stability dG unfold [3]: 17.4 ± 0.92 kJ/mol

SAGKYVTFNFPINIPPGDIKQMLNMIRDIARNLGLKPITDIEIDNIQRDDDYYRIRFEITIKVPPGDLKSAG [r5_575_TrROS]
folding stability dG unfold [1]: 10.2 ± 0.753 kJ/mol
folding stability dG unfold [2]: 18 ± 0.502 kJ/mol
folding stability dG unfold [3]: 14 ± 1.8 kJ/mol

SAGLEVEIVSVEYDEETNTVKVKVKVRNPETNEVTTLELTIKLPPPPPPVEKVEVKEVKDGKVTVTYEESAG [r5_150_TrROS_Hall]
folding stability dG unfold [1]: 6 ± 0.753 kJ/mol
folding stability dG unfold [2]: 1.65 ± 0.544 kJ/mol
folding stability dG unfold [3]: 5.36 ± 2.01 kJ/mol

SAGLFITVEANPNNGTMRITLYRMEPRKDGDGPKMDIEPIAEIEVPMESPEEARDKAKDKAKNLLDKFNSAG [r5_956_TrROS]
folding stability dG unfold [1]: 4.43 ± 0.268 kJ/mol
folding stability dG unfold [2]: 7.74 ± 0.586 kJ/mol
folding stability dG unfold [3]: 6.59 ± 0.46 kJ/mol

SAGLGIWRDPDMWKLEFNLLLPNGYVYKVEVTVTPDGIDVSIEPVPIPPVPTADSPEDAKEYQKQNENQSAG [r5_272_TrROS]
folding stability dG unfold [1]: 4.43 ± 0.544 kJ/mol
folding stability dG unfold [2]: 10.9 ± 0.753 kJ/mol
folding stability dG unfold [3]: 8.64 ± 1.46 kJ/mol

SAGLRLVLELELEVPPDVPPERVREAVEREVRDILGRLGIPLPPDARIVVEEVERRGRRVRFRVEVDFPSAG [r14_735_TrMRF]
folding stability dG unfold [1]: 21.5 ± 1.34 kJ/mol
folding stability dG unfold [2]: 21.2 ± 0.753 kJ/mol
folding stability dG unfold [3]: 20.9 ± 0.879 kJ/mol

SAGLSEIVKKLFPEEEIEIEVEERTLPGPPNIPVVEFDVRITFKDGRTFRARAIRYPDFVLIEVEPLEPSAG [r14_28_TrMRF]
folding stability dG unfold [1]: 13.6 ± 0.46 kJ/mol
folding stability dG unfold [2]: 15.7 ± 0.272 kJ/mol
folding stability dG unfold [3]: 15.1 ± 0.46 kJ/mol

SAGLSPQVRDWLRDLFQEEGFKVKEIDVQPHPNGQMYIKINYPNGKPIKEIPVPPGMDTPEQALKMIRKSAG [r5_352_TrROS]
folding stability dG unfold [1]: -0.0307 ± 0.46 kJ/mol
folding stability dG unfold [2]: 2.08 ± 0.544 kJ/mol
folding stability dG unfold [3]: 1.31 ± 0.293 kJ/mol

SAGLVVTKLPGDGTLRITLPPPGAPLVLTIPLDPGNGTLSVTVTRPDGRSETYTFPGGSIDEVIERLLSAGG [r19_159_JUSTAS]
folding stability dG unfold [1]: 9.9 ± 0.31 kJ/mol
folding stability dG unfold [2]: 12.14 ± 0.0879 kJ/mol
folding stability dG unfold [3]: 11.4 ± 0.389 kJ/mol

SAGMATTTELPNGFLTTYEDGTTSFIPAEPPEVPVTTVPVTSPEEAAAAVAAAGLSVEVVTADSVTAPASAG [r5_328_JUSTAS]
folding stability dG unfold [1]: 8.62 ± 0.381 kJ/mol
folding stability dG unfold [2]: 5.03 ± 0.113 kJ/mol
folding stability dG unfold [3]: 6.84 ± 0.293 kJ/mol
